Laboratory results as given in publication PMC11095200.

Biological target: StAR (UniProt P51557)
Test: co-immunoprecipitation and western blot
Settings: reference: wild-type 14-3-3γ; sites S71

## 14-3-3γ (from UniProt P61982) S71A 14-3-3γ
  binding against the reference: weaker
